The record followed here is PMC7870846, “Incorporation of sensing modalities into de novo designed fluorescence-activating proteins” (Nature Communications, 2021).

Assay [1] in a line: Ca2+-responsive mFAP Ca2+ titrations. It counts as binding. To be noted: Ca2+ titration with excess DFHBI. In short, it runs like this: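 Purified protein at 500 nM with 5.00 μM DFHBI titrated over eleven 10-fold CaCl2 dilutions plus a no-Ca2+ condition in high-salt Tev cleavage buffer; endpoint fluorescence at ex 484/em 508 nm, protein-free background subtracted. Triplicate means fit to a single-site isotherm, Hill coefficient 1, for Kd.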

Assay [2] can be described thus: Photophysical characterization: absorbance, excitation/emission spectra, extinction coefficients, quantum yields. It counts as physicochemical. The method, then: Protein preparation: mFAP2a, mFAP2b, and mFAP10 were produced by large-scale protein purification and SEC purification, and dialyzed overnight into DPBS that was adjusted to pH 7.40 using NaOH.
Chromophore preparation: DFHBI (Lucerna) and DFHBI-1T (Lucerna) were dissolved to 20.0 mM in 100% DMSO, and diluted in DPBS (pH 7.40) to measure absorbances on a Jasco V-750 spectrophotometer at peak absorbance wavelengths (417 nm for DFHBI and 422 nm for DFHBI-1T). Following background subtraction of identical buffer without chromophore, Beer’s Law was used to calculate the molar chromophore concentrations of the stock solutions using previously reported extinction coefficients.
Preparation of protein–chromophore complexes: For quantum yield measurements, 1.00 μM, 836 nM, or 919 nM chromophore solutions in DPBS (pH 7.40) at 4.00 mL final volumes were prepared for the following eight conditions: DFHBI only, DFHBI-1T only, 43.5 µM 6xHis-mFAP10 with DFHBI, 43.5 µM 6xHis-mFAP10 with DFHBI-1T, 134 μM 6xHis-mFAP2a with DFHBI, 134 μM 6xHis-mFAP2a with DFHBI-1T, 206 μM 6xHis-mFAP2b with DFHBI, and 206 μM 6xHis-mFAP2b with DFHBI-1T.
Extinction coefficients: Absorbance spectra of protein–chromophore complexes were first measured with a Thermo Scientific BioMate 3S UV–Vis Spectrophotometer (1 nm interval, 800 nm min^−1). The extinction coefficients were then calculated using Beer’s Law:12 A=ε⋅b⋅c, where A is peak absorbance, ε is extinction coefficient, b is path length (1 cm), and c is concentration (1.00 μM, 836 nM, or 919 nM).
Relative quantum yield: A Perkin-Elmer LS-B Luminescence Spectrophotometer (10 nm bandwidth, 1 nm interval, 100 nm min^−1) was used. The fluorescence emission spectra of the protein–chromophore complexes (in DPBS, pH 7.40) and reference dye Acridine Yellow G (in methanol) were first obtained, and the quantum yield was then calculated using the equation[53]:13 ϕc=ϕr⋅1−10^−Ar(λex)/1−10^−Ac(λex)⋅∫Fc(λ)⋅dλ/∫Fr(λ)⋅dλ⋅nc2/nr2, where ϕ is quantum yield, A(λex) is absorbance at the excitation wavelength λex ( λex = 440 nm), F is fluorescence emission, n is refractive index of the solution (1.3350 for DPBS at pH 7.40 and 1.3284 for methanol), and the subscripts “c” and “r” refer to the protein–chromophore complex measured and the reference dye, respectively. […]
Absolute quantum yield: An integrating sphere instrument (Hamamatsu C9920-12) (6 nm excitation bandwidth, 1 nm interval) and a high-sensitivity photonic multi-channel analyzer (Hamamatsu C10027-01) were used to measure a light emission spectrum. Absolute quantum yields were measured for solutions of protein–chromophore complexes in DPBS (pH 7.40) in which ≥95% of the total chromophore was occupying the protein-binding pocket (Table 1). […]

B1: mFAP2b: mFAP2.5 with V67I, "b" for bright (protein)
chain: SRAAQLLPGTWQVTMTNEDGQTSQGQWHFQPRSPYTMDIVAQGTISDGRPIVGYGKATVKTPDTLDIDITYPSLGNIKAQGQITMDSPTQFKWDATTKGENDFHGRLTGTLQRQE
Regarding B1, in assay [1], the “Ca2+-responsiveness / allostery between DFHBI and Ca2+ binding” value is recorded as “lack of Ca^2+-responsiveness”. Moreover, in assay [2], the “brighter fluorescence with DFHBI than DFHBI-1T” value is reported as ~ 30 fold.
